Measured values taken from patent US9046524B1, “Method to quantify and measure excess colipase in a pancreatin active pharmaceutical ingredient” (Scientific Protein Laboratories, LLC, priority 2012, dated 2015).

Assays:
Format in all cases: biochemical
lipase [1] = molecular target: T1, lipase (Sus scrofa, UniProt P00591); test: Bile salt (Na-TDC) inhibition of lipase activity against tributyrin
T1 construct: purchased USP Rockville, Md; 1494079
T1 sequence (P00591 1-450): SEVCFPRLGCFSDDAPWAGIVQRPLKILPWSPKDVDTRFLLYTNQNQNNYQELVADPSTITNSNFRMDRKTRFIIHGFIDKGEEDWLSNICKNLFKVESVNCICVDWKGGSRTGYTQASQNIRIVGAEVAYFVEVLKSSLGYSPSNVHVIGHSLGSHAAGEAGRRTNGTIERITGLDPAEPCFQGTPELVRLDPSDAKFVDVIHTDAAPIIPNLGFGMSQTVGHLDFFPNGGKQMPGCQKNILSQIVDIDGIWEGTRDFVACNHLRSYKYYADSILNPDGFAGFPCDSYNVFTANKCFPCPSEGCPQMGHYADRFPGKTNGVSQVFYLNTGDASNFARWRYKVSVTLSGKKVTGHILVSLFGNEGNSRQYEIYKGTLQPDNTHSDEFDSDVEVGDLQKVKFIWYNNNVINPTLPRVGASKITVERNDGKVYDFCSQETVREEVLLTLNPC
Experimental: Lipase activity against tributyrin is assayed with different concentration of TDC to determine the CMC for inhibition. The minimum TDC concentration to achieve sufficient inhibition of lipase activity is determined. Five different concentrations (1, 4, 8, 12 and 16 mM) of sodium taurodeoxy-cholate (Na-TDC) are used to determine the CMC of bile salt on two concentrations of lipase (2.5 and 5.0 μg/mL). […] As shown also in FIG. 4, increasing the concentration of bile salt above the CMC results in a progressive inhibition of lipase activity (4-16 mM Na-TDC). […] The lipase inhibition with higher concentration of bile salt (above CMC) is more consistent with the lipase at 5.0 μg/mL when compared to 2.5 μg/mL lipase (FIG. 4).

pancreatin lipase = molecular target: T2, pancreatin lipase (Sus scrofa, UniProt P00591); test: Orlistat inhibition of lipase activity on GTB substrate; conditions: 1.0 μM Lipase:Orlistat equal molar, 5 minutes on ice; USP Lipase and pancreatin samples #1, #2, #3; 1 mM Na-TDC
T2 construct: purchased USP Rockville, Md; 1494079; host or cells: also pancreatin API samples #1, #2, #3 (pancreas extract)
T2 sequence (P00591 1-450): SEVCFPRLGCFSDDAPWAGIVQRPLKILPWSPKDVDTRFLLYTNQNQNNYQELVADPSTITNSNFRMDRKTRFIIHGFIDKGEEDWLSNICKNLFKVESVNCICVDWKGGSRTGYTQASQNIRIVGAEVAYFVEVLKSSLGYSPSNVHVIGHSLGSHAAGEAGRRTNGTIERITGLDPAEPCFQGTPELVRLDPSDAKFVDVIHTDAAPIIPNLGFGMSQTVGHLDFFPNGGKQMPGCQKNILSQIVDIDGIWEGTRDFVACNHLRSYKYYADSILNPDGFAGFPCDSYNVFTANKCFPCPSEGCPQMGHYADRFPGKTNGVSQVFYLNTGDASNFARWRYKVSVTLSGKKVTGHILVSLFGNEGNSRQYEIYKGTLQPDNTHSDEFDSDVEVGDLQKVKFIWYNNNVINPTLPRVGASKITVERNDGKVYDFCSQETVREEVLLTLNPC
Experimental: To check the specificity of the substrate GTB, an inhibition experiment is conducted with the specific inhibitor Orlistat (Tetrahydrolipstatin, THL, Sigma #04139). […] To check the specificity of GTB substrate, bile salt below CMC concentration (1 mM Na-TDC) is chosen to obtain maximum lipase activity.
The Orlistat is dissolved in dimethyl sulfoxide (DMSO) to obtain 1.0 mg/mL stock solution. Lipase (USP) and pancreatin samples #1, #2 and #3 are mixed with Orlistat at equal molar concentrations (1.0 μM Lipase:Orlistat) and incubated for 5 minutes on ice. The assays are performed on USP Lipase and pancreatin API samples with and without Orlistat. All the samples are titrated with 0.005 M NaOH for 5 minutes in a glass mixing chamber with 30 mL of substrate mix containing 1 mM Na-TDC at 37° C. temperature and pH 7.5.

lipase [2] = molecular target: T3, lipase (Sus scrofa, UniProt P00591); test: Reactivation of bile salt-inhibited lipase by added colipase
T3 construct: from tissue; host or cells: pancreatin API batches (pancreas extract)
T3 sequence (P00591 1-450): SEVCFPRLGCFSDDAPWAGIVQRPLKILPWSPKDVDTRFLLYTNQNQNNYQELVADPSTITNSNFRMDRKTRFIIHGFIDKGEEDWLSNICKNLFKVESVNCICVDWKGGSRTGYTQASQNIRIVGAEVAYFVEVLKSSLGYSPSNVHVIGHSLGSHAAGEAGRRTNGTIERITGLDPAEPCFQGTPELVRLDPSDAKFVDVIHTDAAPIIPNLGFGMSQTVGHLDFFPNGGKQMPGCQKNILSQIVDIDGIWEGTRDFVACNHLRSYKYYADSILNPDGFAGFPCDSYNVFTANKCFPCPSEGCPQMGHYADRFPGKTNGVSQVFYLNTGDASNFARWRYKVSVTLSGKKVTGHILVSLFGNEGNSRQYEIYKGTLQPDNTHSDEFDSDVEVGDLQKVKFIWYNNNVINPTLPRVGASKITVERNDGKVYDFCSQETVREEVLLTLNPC
T3 sequence (P02703 23-112 partner): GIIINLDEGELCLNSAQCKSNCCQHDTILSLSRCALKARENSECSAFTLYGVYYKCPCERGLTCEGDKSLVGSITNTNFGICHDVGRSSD
Experimental: In yet another embodiment, the effect of colipase on lipase activity and determination of the optimum concentration of colipase to measure the restored lipase activity is studied. The method for colipase determination is based on the principle that lipase inactivated by bile salt is reactivated by colipase (FIG. 1). FIG. 4 supports the theory of reactivation of lipase with the addition of exogenous colipase. As such, different concentrations of bile salt (0, 4, 8, 12 and 16 mM) are tested in the presence of 5.0 μg of lipase per reaction to measure the lipase activity. To each reaction beaker, a different amount of colipase (2.5, 5.0 and 10 μg) is added to the assay mixture prior to the lipase.
However, by adding different concentration of exogenous colipase (Sigma Cat #C3028), lipase activity is restored. In FIG. 5, 2.5 μg colipase, 5.0 μg colipase, and 10.0 μg colipase bars with 4, 8, 12 and 16 mM Na-TDC represent the lipase activity due to reactivation of lipase from addition of exogenous colipase. The presence of colipase at higher concentration will inhibit lypolysis. […] Although the main function of colipase is to restore the activity of the bile salt-inhibited lipase, colipase also has been reported to affect the activity of lipase in absence of bile salts by stabilizing lipase and decreasing its rate of inactivation in the presence of substrate (see Borgstrom and Brockman, 1984). […] Results reveal the most favorable amount of colipase to recover the inhibited lipase is 2.5 μg per assay with 4 mM Na-TDC.
In still another embodiment, a separate study is performed with differing amounts of lipase (2.5, 5.0 and 10 μg per reaction) to determine the maximum recovery of lipase activity in the presence of 4 mM Na-TDC and 2.5 μg added colipase. The colipase content of the sample is determined as a difference between two titration values, the blank with lipase and the test with lipase plus added colipase (test values−blank values). The accuracy of the determination is dependent on the relative proportion between lipase and colipase.
The activity in the absence of added colipase increases with increase in lipase amount, due to presence of endogenous colipase. Further, the lipase activity increases by adding exogenous colipase.

Question: What does the source list for `C[C@H](CCC(=O)NCCS(=O)(=O)[O-])[C@H]1CC[C@H]2[C@@H]3CC[C@@H]4C[C@H](O)CC[C@]4(C)[C@H]3C[C@H](O)[C@]12C.O.[Na+]` [Na-TDC, sodium taurodeoxycholate hydrate]?
Answer: effect on lipase activity below CMC (lipase [1]; 1 mM Na-TDC compared to 0 mM): enhancement in lipase activity; effect on lipase activity above the CMC (lipase [1]; 4, 8, 12 & 16 mM Na-TDC, lipase 2.5 and 5.0 μg/mL): almost complete inhibition of lipase activity

Question: Which “inhibition of lipase activity” value (pancreatin lipase) does the source give for `CCCCCCCCCCC[C@@H](C[C@@H]1OC(=O)[C@H]1CCCCCC)OC(=O)[C@H](CC(C)C)NC=O` [Orlistat] here?
Answer: The value was 90%.

B1: colipase: Colipase Standard: Sigma Colipase from porcine pancreas Cat #C3028 (protein, UniProt P02703 23-112, looked up)
Colipase: GIIINLDEGELCLNSAQCKSNCCQHDTILSLSRCALKARENSECSAFTLYGVYYKCPCERGLTCEGDKSLVGSITNTNFGICHDVGRSSD
Question: What does the source list for B1?
Answer: restored lipase activity (lipase [2]; 2.5 μg colipase, 4 mM Na-TDC, 10.0 μg lipase): 0.23 fold; increase in restored lipase activity (lipase [2]; 2.5 μg colipase, 4 mM Na-TDC, 2.5 and 5.0 μg of lipase): two-fold; increase in lipase activity by addition of colipase (lipase [2]; 2.5 μg colipase, without bile salt, 5.0 μg lipase): about 1.5 fold; restored lipase activity with 5 and 10 μg colipase, fold lower than with 2.5 μg colipase (lipase [2]; 16 mM TDC): 4 fold
